Assay results from US12006368 (SURROZEN OPERATING, dated 2024).

Experiments:
[1] = target: T1, hFzd5 CRD-Xtal (hFzd5_Q13467_27-152) (human, UniProt Q13467 27-152); assay: size-exclusion chromatography of the Fzd CRD_Xtal:Fab mixture
T1 construct: complex incubated with carboxypeptidase A and B before crystallisation
T1 sequence: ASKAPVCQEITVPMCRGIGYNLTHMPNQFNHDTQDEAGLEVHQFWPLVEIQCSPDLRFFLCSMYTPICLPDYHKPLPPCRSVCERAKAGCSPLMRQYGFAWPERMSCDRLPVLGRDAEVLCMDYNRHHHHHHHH
Procedure: (§1) Purfied Fzd CRD_Xtal and Fab binders were mixed at 1.1:1 molar ratio (little excess of the smaller molecular weight protein), and incubated with carboxy-peptidase A and B at a w/w ratio of 100:1 for over-night at 4° C. Complex formation was confirmed by observation of a single-major peak on SuperdexS200 Increase (10/300 GL) column pre-equilibrated in HBS. Fractions containing complexes were further checked by SDS-PAGE, and concentrated to a range from 10 to 55 mg/mL for crystallization screens. Initial crystallization screen, using commercially available MCSG1, MCSG2, MCSG3, MCSG4, PACT (Molecular Dimensions), PEGs I, and PEGs II (Qiagen) screen, and optimization by grid-screens or microseed matrix screen [MMS; Microseed matrix screening for optimization in protein crystallization: what have we learned? D'Arcy, A., Bergfors, T., Cowan-Jacob S. W., and Marshd, M. Acta Cryst. F70, 1117-1126 (2014)]. were performed using Mosquito (TTP LabTech) liquid handler, and equilibrated at 18° C. inside an EchoTherm incubator (Torrey Pines Scientific). 96-well plate crystal screening experiments were periodically monitored manually via a DiscoveryV20 stereomicroscope (Zeiss), and crystals were frozen for data collection by plunging into liquid nitrogen in the presence of various cryo-protectants (typically 15 to 30% v/v of glycerol or ethyleneglycol). X-ray diffraction datasets were collected at the Berkeley Center for Structural Biology at the Advanced Light Source (ALS), Berkeley CA, and processed with XDS [Kabsch, W. XDS. Acta Cryst. D66, 125-132 (2010)], and xdsme [Legrand, P. XDSME: XDS Made Easier (2017) GitHub repository, https://github-.com/legrandp/xdsme DOI 10.5281/zenodo.837885]. programs. Structure of Fzd:Fab complexes were determined by molecular replacement method using Phaser with constant and variable domains of related Fabs are template [Phaser crystallographic software. A. J. McCoy, R. W. Grosse-Kunstleve, P. D. Adams, M. D. Winn, L. C. Storoni, and R. J. Read. J Appl Crystallogr 40, 658-674 (2007)], followed by refinement and validation by MolProbity as implemented in Phenix [PHENIX: a comprehensive Python-based system for macromolecular structure solution.

[2] = target: Fzd2 cysteine rich domain (CRD), C-terminally biotinylated (human, UniProt Q14332 24-155); assay: BLI; **=Kd 100-2000 nM
Procedure: (§2) Binding kinetics of antibody fragments to a variety of Fzd cysteine rich domain (CRD) protein targets (Fzd1, Fzd2, Fzd3, Fzd4, Fzd5, Fzd6, Fzd7, Fzd8, Fzd9 and/or Fzd10 CRDs) was determined by bio-layer interferometry (BLI) using Octet Red 96 (PALL ForteBio, Fremont, CA) instruments at 30° C., 1000 rpm with streptavidin (SA) biosensors. C-terminal biotinylated Fzd CRD recombinant protein was diluted to 20 nM in the running buffer (PBS, 0.05% Tween-20, 0.5% BSA, pH 7.2) and captured to the SA biosensor until coupling length reached 0.2 nm. Following capture of the Fzd CRD, the SA biosensor with captured biotinylated-Fzd CRD was dipped into wells containing the relevant antibody fragment at […] (0, 1.37, 4.12, 12.4, 37, 111.1, 333.3, 1000 nM) in running buffer, plus a well with only running buffer as a reference channel. […] was determined by global fitting, 1:1 binding model according to manufacturer recommended settings.
(§3) Table 1B provides clone IDs, the sequence identifier number of the antibody heavy chain fragment and/or light chain fragment, if present, for illustrative clones. In certain embodiments, the Fzd binding domain is an Fab or was derived from an Fab, so the heavy chain of Table 1B includes VH and CH1 sequence, but not CH2 or CH3 sequences. In certain embodiments, the Fzd binding domain is a VHH or sdAb® or was derived from a VHH or sdAb, so Table 1B includes the VHH domain. […] The Kd values were determined by BLI as described above. Blank entries denote that the binding to the specific Fzd receptor has not yet been determined. The entry of "n.b." indicates no binding.

[3] = target: T2, Fzd1 cysteine rich domain (CRD), C-terminally biotinylated (human, UniProt Q9UP38 101-230); assay: BLI; **=Kd 100-2000 nM
Procedure: as §2, §3

[4] = target: T3, Fzd7 cysteine rich domain (CRD), C-terminally biotinylated (human, UniProt O75084 36-165); assay: BLI; **=Kd 100-2000 nM
Procedure: as §2, §3

[5] = target: T2, Fzd1 cysteine rich domain (CRD), …; assay: BLI; *=Kd <100 nM
Procedure: as §2, §3

[6] = target: T2, Fzd1 cysteine rich domain (CRD), …; assay: BLI; **=Kd >100 nM
Procedure: as §2
One antibody fragment, clone 001S-A04, was selected for alanine-scanning mutagenesis of CDRs, and the respective Fzd1 binding affinities of the various mutants were determined by Octet BLI as described in Example 1.

[7] = target: T3, Fzd7 cysteine rich domain (CRD), …; assay: BLI; *=Kd <100 nM
Procedure: as §2, §3

[8] = target: hFzd1 CRD-Xtal (hFzd1_Q9UP38_101-230) (human, UniProt Q9UP38 101-230); assay: size-exclusion chromatography of the Fzd CRD_Xtal:Fab mixture
Procedure: as §1

B1: 4A12 Fab (Fab, V domains shown)
VH: QVQLQQSGPELVKPGASVKLSCKASGYTFTNYDINWVKQRPGQGLEWIGWIYPRDGSTKYNEKFKGKATLTVDTSSSTAYMELHSLTSEDSAVYFCVRSAWGFAYWGQGTLVTVSA
VL: DIVMTQSHKFMSTSVGDRVSITCKASQDVGTAVAWYQQKPGQSPKLLIYWASTRHTGVPDRFTGSGSGTDFTLTINNVQSEDLADYFCQQYSTYPLTFGAGTKLELKR
notes: heavy chain with C-terminal hexa-histidine tag; carboxypeptidase A and B treated in the complex
Question: Does B1 bind [1]?
Answer: Result: binds

B2: 001S-H02 (Fab, V domains shown)
VH: QVQLQESGPGLVKPSETLSLTCTVSGGSISSSSYYWGWIRQHPGKGLEWIGYIYYSGSTYYNPSLKSRVTISVDTSKNQFSLKLNSVTAADTAVYYCARATYGGDAFDIWGQGTMVTVSS
VL: QSVVTQPPSVSGAPGQRVTISCTRSSSNIGAGYDVHWYQQHPGTAPKLLIFGNSIRPSGVPDRFSGSKSGTSATLGITGLQTGDEADYYCGTWDSSLSAWVFGGGTKLTVLG
Question: Which results are given for B2?
Answer: Kd [2]: 100 to 2000 nM; Kd [3]: 100 to 2000 nM; Kd [4]: 100 to 2000 nM

B3: 001S-A03 (Fab, V domains shown)
VH: QLQLQESGPGLVKPSQTLSLTCTVSGGSISSGGYYWSWIRQHPGKGLEWIGYIYYSGSTYYNPSLKSRVTISVDKSKNQFSLKLSSVTAADTAVYYCARVRDYYDSSGYYYDYFDYWGQGTLVTVSS
VL: DIQLTQSPSSLSASVGDRVTITCRASRSISSYFNWYQQKPGKAPKLLIYAASSLQSGVPSRFSGSRSGTDFTLTISSLQPEDFATYYCQQADTFPPTFGQGTRLEIKR
Question: For B3, which Kd [5] is on record?
Answer: Its Kd is under 100 nM.

Question: What about the Kd [2] of the same binder?
Answer: Its Kd is 100 to 2000 nM.

Question: What about the Kd [4] of the same binder?
Answer: The Kd was 100 to 2000 nM.

B4: 001S-A04 mutant VHT6A (Fab, V domains shown)
VH: EVQLVQSGAEVKKPGASVKVSCKASGYTFTSYGISWVRQAPGQGLEWMGWISAYNGNTNYAQKLQGRVTMTTDTSTSTAYMELRSLRSDDTAVYYCASSKEKAAYYYGMDVWGQGTTVTVSS
VL: QAVVLQEPSLSVSPGGTVTLTCGLSSGSVSTNYYPSWYQQTPGQAPRTLIYYTNTRSSDVPERFSGSIVGNKAALTITGAQPDDESVYFCLLYLGRGIWVFGGGTKLTVLG
Question: B4 was tested. Which KD [6] did it give?
Answer: The KD was over 100 nM.

B5: 001S-A04 mutant VLW9A (Fab, V domains shown)
VH: EVQLVQSGAEVKKPGASVKVSCKASGYTFTSYGISWVRQAPGQGLEWMGWISAYNGNTNYAQKLQGRVTMTTDTSTSTAYMELRSLRSDDTAVYYCASSKEKATYYYGMDVWGQGTTVTVSS
VL: QAVVLQEPSLSVSPGGTVTLTCGLSSGSVSTNYYPSWYQQTPGQAPRTLIYYTNTRSSDVPERFSGSIVGNKAALTITGAQPDDESVYFCLLYLGRGIAVFGGGTKLTVLG
Question: How did the KD [6] turn out when B5 was run?
Answer: Its KD is over 100 nM.

B6: 001S-A04 mutant VHY7A (Fab, V domains shown)
VH: EVQLVQSGAEVKKPGASVKVSCKASGYTFTSYGISWVRQAPGQGLEWMGWISAYNGNTNYAQKLQGRVTMTTDTSTSTAYMELRSLRSDDTAVYYCASSKEKATAYYGMDVWGQGTTVTVSS
VL: QAVVLQEPSLSVSPGGTVTLTCGLSSGSVSTNYYPSWYQQTPGQAPRTLIYYTNTRSSDVPERFSGSIVGNKAALTITGAQPDDESVYFCLLYLGRGIWVFGGGTKLTVLG
Question: Which KD [6] does the source give for B6 here?
Answer: Its KD is over 100 nM.

B7: 001S-A04 mutant VHY9A (Fab, V domains shown)
VH: EVQLVQSGAEVKKPGASVKVSCKASGYTFTSYGISWVRQAPGQGLEWMGWISAYNGNTNYAQKLQGRVTMTTDTSTSTAYMELRSLRSDDTAVYYCASSKEKATYYAGMDVWGQGTTVTVSS
VL: QAVVLQEPSLSVSPGGTVTLTCGLSSGSVSTNYYPSWYQQTPGQAPRTLIYYTNTRSSDVPERFSGSIVGNKAALTITGAQPDDESVYFCLLYLGRGIWVFGGGTKLTVLG
Question: B7 was tested. Which KD [6] did it give?
Answer: The KD was over 100 nM.

B8: 001S-B01 (Fab, V domains shown)
VH: QLQLQESGSGLVKPSQTLSLTCAVSGGSISSGGYSWSWIRQPPGKGLEWIGSIYHSGSTYYNPSLKSRLTISVDTSKNQFSLKLSSVTAADTAVYYCARFYYDILTGYSYFDYWGQGTLVTVSS
VL: DIVMTHTPLSLSVTPGEPASISCRSSRSLLDTDDGNTYLDWYLQKPGQSPQLLIHTLSHRASGVPDRFSGSGSGTDFTLKISRVEAEDVGVYYCMQSIQLPWTFGQGTKVEIKR
Question: Which results are given for B8?
Answer: Kd [2]: 100 to 2000 nM; Kd [3]: 100 to 2000 nM; Kd [4]: 100 to 2000 nM

B9: 001S-G02 (Fab, V domains shown)
VH: QVQLQESGPGLVKPSETLSLTCTVSGGAISGTSYFWGWIRQPPGKGLEWIGSIYYTGNTYYNPSLKSRLTVSVDTSKNQFSLNLNSVTAADTATYYCARIGIAVAAPVDHWGQGTLVTVSS
VL: EIVLTQSPATLSLSPGEGATLSCRASQSVGTYLTWYRQKPGQAPRLLIYDASNRATGIPARFSGSGAGTDFTLKISRVEAEDVGVYYCMQATQFPLTFGQGTKVEIKR
Question: B9 was tested. Which Kd [2] did it give?
Answer: Its Kd is 100 to 2000 nM.

Question: What about the Kd [3] of the same binder?
Answer: The Kd was 100 to 2000 nM.

Question: And the Kd [4]?
Answer: The Kd was 100 to 2000 nM.

B10: 001S-E02 (Fab, V domains shown)
VH: QVQLQESGPGLVKPSETLSLTCTVSGGSISGNNYYWGWIRQPPGKGLEWIGSIYFTGGTYYNPSLKSRVTISVDTSKNQFSLKLSSVTAADTAVYYCARVMLITDAFDIWGQGTMVTVSS
VL: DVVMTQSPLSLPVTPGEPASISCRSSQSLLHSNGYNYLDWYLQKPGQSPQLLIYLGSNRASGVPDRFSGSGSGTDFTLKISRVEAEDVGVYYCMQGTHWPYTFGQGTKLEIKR
Question: For B10, which Kd [5] is on record?
Answer: The Kd was under 100 nM.

Question: What about the Kd [7] of the same binder?
Answer: The Kd was under 100 nM.

Question: What about the Kd [2] of the same binder?
Answer: The Kd was 100 to 2000 nM.

B11: R2M9 (003S-E07) Fab (Fab, V domains shown)
VH: QVQLVQSGAEVKKPGSSVKVSCKASGYTFTNNFMHWVRQAPGQGLEWMGWINPNSGGTKYAQKFQGRVTITADESTSTAYMELSSLRSEDTAVYYCARSVGEVGATMLGIGVWYWFDPWGQGTLVTVSS
VL: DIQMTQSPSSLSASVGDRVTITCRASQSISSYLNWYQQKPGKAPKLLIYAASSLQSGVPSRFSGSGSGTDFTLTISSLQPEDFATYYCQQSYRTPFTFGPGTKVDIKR
notes: as for B1
Question: Does B11 bind [8]?
Answer: Result: binds

B12: 002S-A04 (VHH)
VHH: AVQLVESGGGLVQAGGSLRLSCTASGRTFSSYAMGWFRQAPGKEREFVAAISWSGRSTYYADSVKGRFTISRDNAKNTVYLQMNSLKSEDTAAYYCAAGPIARWYRGDMDYWGKGTLVTVSS
Question: How did the Kd [5] turn out when B12 was run?
Answer: The Kd was under 100 nM.

B13: 002S-C02 (VHH)
VHH: DVQLVESGGGLVQTGGSLRLSCVASGRTFRAYAMGWFRQAPGKEREFVSAISWSGGSTYYAGSVKGRFTISRDSAKNTVHLQMDSLIPEDTAVYYCAAGPIARWYRGDMDYWGKGTLVTVSS
Question: For B13, which Kd [5] is on record?
Answer: Its Kd is under 100 nM.
